Results on 9 molecules are retold here after US20160333098A1 (published 2016).

The Kd is the concentration at which binding is half-saturated.

For assay [1], the target named is recombinant human IGF-1R (rhIGF-1R), immobilized on plates or polystyrene beads (human) (UniProt P08069). Nature of the assay: labeled antibody on rhIGF-1R-coated beads; competitor: unlabeled 3B7.
The target is the same in assay [2]. In words: labeled antibody on rhIGF-1R-coated beads; competitor: unlabeled hR1.
For assay [3] the target is unchanged. Nature of the assay: labeled antibody on rhIGF-1R-coated beads; competitor: unlabeled 1H7.
For assay [4] the target is unchanged. In words: labeled antibody on rhIGF-1R-coated beads; competitor: unlabeled 1-2.
The target is the same in assay [5]. In words: labeled antibody on rhIGF-1R-coated beads; competitor: unlabeled MAB391.
The target is the same in assay [6]. Nature of the assay: labeled antibody on rhIGF-1R-coated beads; competitor: unlabeled 17-69.
The target is the same in assay [7]. In words: labeled antibody on rhIGF-1R-coated beads; competitor: unlabeled 2C8.
For assay [8] the target is unchanged. Nature of the assay: labeled antibody on rhIGF-1R-coated beads; competitor: unlabeled 24-60.
The target is the same in assay [9]. In words: labeled antibody on rhIGF-1R-coated beads; competitor: unlabeled cR1.
For assay [10] the target is unchanged. Nature of the assay: labeled antibody on rhIGF-1R-coated beads; competitor: unlabeled αIR-3.
The target is the same in assay [11]. Nature of the assay: labeled antibody on rhIGF-1R-coated beads; competitor: unlabeled R1.
Assay [12] shares this target. In words: labeled antibody on rhIGF-1R-coated beads; competitor: unlabeled 24-31.
For assay [13] the target is unchanged. In words: labeled antibody on rhIGF-1R-coated beads; competitor: unlabeled 24-57.
Assay [14] has as its target EGP-1 expressed on cancer cell lines (MCF-7, DU-145, ME-180) (UniProt P09758). Nature of the assay: flow cytometry (FACScan), MCF-7 cells.
Assay [15] shares this target. Nature of the assay: flow cytometry (FACScan), DU145 cells. In general terms: A flow cytometer gives signals particle by particle.
For assay [16] the target is unchanged. Nature of the assay: flow cytometry (FACScan), ME-180 cells.
Assay [17] concerns the target cell lines MCF-7, DU-145 and ME-180 carrying both IGF-1R and EGP-1. Nature of the assay: flow cytometry (FACScan), MCF-7 cells; control.
Assay [18] has the same target. Nature of the assay: flow cytometry (FACScan), MCF-7 cells; structural control.
Assay [19] has as its target IGF-1R expressed on cancer cell lines (MCF-7L, MCF-7, CaPan1, DU-145, ME-180, Hep G2, HT-29, LNCaP) (human) (UniProt P08069). In words: 125I-IGF-1 binding to MCF-7L cells in the presence of 1000 ng/mL antibody.
Assay [20] has the same target. Nature of the assay: 125I-IGF-1 binding to MCF-7L cells in the presence of 10 ng/mL antibody.
Assay [21] shares this target. Nature of the assay: 125I-IGF-1 binding to MCF-7L cells, 0 ng/mL antibody (reference).
Assay [22] has the same target. Nature of the assay: 125I-IGF-1 binding to MCF-7L cells in the presence of 100 ng/mL antibody.
Assay [23] addresses T1, recombinant human IGF-1R (rhIGF-1R), immobilized on plates or polystyrene beads (human, UniProt P08069 31-935).
T1 construct: also called immobilized recombinant human IGF-1R; IGF-1R-coated beads
In words: labeled antibody on rhIGF-1R-coated beads; competitor: unlabeled 17-69.

Assay [24] addresses T1, recombinant human IGF-1R (rhIGF-1R), …. Nature of the assay: labeled antibody on rhIGF-1R-coated beads; competitor: unlabeled hR1.
Assay [25] shares this target. Nature of the assay: labeled antibody on rhIGF-1R-coated beads; competitor: unlabeled αIR-3.
For assay [26] the target is unchanged. In words: labeled antibody on rhIGF-1R-coated beads; competitor: unlabeled MAB391.
For assay [27] the target is unchanged. Nature of the assay: labeled antibody on rhIGF-1R-coated beads; competitor: unlabeled cR1.
For assay [28] the target is unchanged. Nature of the assay: labeled antibody on rhIGF-1R-coated beads; competitor: unlabeled 24-57.
For assay [29] the target is unchanged. In words: labeled antibody on rhIGF-1R-coated beads; competitor: unlabeled 2C8.
The target of assay [30] is recombinant human insulin receptor (rhIR), immobilized (human, UniProt P06213-2 28-944, limits assumed). Nature of the assay: ELISA on immobilized receptor. In general terms: In an ELISA, binding on a coated surface is turned into a signal by an enzyme label.
Chain of recombinant human insulin receptor (rhIR), immobilized (P06213 other isoform, or with tags, fused parts or gaps limits assumed): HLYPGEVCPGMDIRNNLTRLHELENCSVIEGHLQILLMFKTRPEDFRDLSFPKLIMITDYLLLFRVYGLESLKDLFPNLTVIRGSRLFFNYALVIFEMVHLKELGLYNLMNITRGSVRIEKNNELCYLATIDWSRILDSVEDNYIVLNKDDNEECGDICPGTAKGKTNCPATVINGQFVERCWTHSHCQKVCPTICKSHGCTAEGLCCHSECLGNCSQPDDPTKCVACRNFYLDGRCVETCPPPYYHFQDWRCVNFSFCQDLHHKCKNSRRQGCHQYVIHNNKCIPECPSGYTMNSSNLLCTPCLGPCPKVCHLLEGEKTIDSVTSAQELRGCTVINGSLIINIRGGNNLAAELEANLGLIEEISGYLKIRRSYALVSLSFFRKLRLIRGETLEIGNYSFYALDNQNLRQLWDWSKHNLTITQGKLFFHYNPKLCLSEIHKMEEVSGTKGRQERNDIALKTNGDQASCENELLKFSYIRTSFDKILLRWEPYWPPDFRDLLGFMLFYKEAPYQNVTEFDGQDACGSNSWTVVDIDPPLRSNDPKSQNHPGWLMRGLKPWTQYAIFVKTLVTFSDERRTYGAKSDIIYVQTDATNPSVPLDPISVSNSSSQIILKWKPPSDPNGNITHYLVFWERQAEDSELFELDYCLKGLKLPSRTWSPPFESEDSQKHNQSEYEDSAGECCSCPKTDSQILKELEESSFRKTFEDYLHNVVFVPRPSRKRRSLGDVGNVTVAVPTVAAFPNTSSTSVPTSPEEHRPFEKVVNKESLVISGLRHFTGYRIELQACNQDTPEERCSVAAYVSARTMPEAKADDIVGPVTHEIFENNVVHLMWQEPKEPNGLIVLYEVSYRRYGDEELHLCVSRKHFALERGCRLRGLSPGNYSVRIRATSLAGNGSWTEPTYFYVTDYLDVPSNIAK
Assay [31] deals with T1, recombinant human IGF-1R (rhIGF-1R), …. Nature of the assay: labeled antibody on rhIGF-1R-coated beads; competitor: unlabeled 1H7.
Assay [32] shares this target. In words: labeled antibody on rhIGF-1R-coated beads; competitor: unlabeled 24-60.
Assay [33] has the same target. In words: labeled antibody on rhIGF-1R-coated beads; competitor: unlabeled R1.
For assay [34] the target is unchanged. Nature of the assay: labeled antibody on rhIGF-1R-coated beads; competitor: unlabeled 3B7.
For assay [35] the target is unchanged. In words: labeled antibody on rhIGF-1R-coated beads; competitor: unlabeled 1-2.
Assay [36] shares this target. Nature of the assay: labeled antibody on rhIGF-1R-coated beads; competitor: unlabeled 24-31.
For assay [37] the target is unchanged. In words: ELISA on immobilized rhIGF-1R (cR1 of clones 709.2D2 and 710.2G2, the same value for each).

Chain of EGP-1 expressed on cancer cell lines (MCF-7, DU-145, ME-180) (P09758 27-323): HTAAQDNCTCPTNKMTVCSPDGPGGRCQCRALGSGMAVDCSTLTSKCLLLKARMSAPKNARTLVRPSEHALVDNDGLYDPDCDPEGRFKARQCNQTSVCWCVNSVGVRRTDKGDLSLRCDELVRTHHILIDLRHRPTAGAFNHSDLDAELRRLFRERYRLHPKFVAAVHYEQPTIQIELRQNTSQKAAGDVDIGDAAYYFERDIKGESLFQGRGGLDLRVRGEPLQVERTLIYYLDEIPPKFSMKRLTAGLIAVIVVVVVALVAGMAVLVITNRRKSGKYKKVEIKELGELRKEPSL

As for anti-IGF-1R antibody αIR-3, the % binding in assay [1] is 76%; in [2] it was 107%; in [3], 115%; in assay [4], 95%; in assay [5], 0%; in assay [6], 89%. The % binding in assay [7] is 97%; in [8] it was 0%; in assay [9] it was 97%; in assay [10], 0%; in [11], 86%; in assay [12], 52%. The % binding in assay [13] is 87%.
As for hRS7, humanized anti-EGP-1 antibody, the results for the % Positive in assay [14], in assay [15] and in [16] were 99.2%, 82.8% and 100%, respectively. The figures for the MFI in assay [14], in assay [15] and in assay [16] were 21.4, 10.6 and 35.5, respectively.
Consider anti-IGF-1R antibody 24-60, for which the % binding was 79% in [1]; 0% in assay [2]; 100% in [3]; 100% in assay [4]; 0% in assay [5]; 82% in assay [6]. Also, the % binding in assay [7] amounted to 88%; in assay [8], 0%; in assay [9] it was 0%; in [10], 21%; in assay [11], 0%; in assay [12] it was 18%. Besides, in assay [13], the % binding worked out at 88%.
For “Hex-hRS7, monospecific hexavalent DNL construct (hRS7 IgG-AD2 with hRS7 Fab-DDD2) (antibody)”, the % Positive in [14] worked out at 99.9%; in assay [15], 93.7%; in assay [16], 100%. The MFI came to 35.7 in assay [14], 17 in assay [15] and 59.6 in [16].
In assay [17], “human IgG (control in Table 5) (antibody)” registered a % Positive of 2.34% and an MFI of 1.84.
In assay [18], “DNL construct 22-20 (hLL2 IgG-AD2 with hA20 Fab-DDD2) (bispecific antibody)” registered a % Positive of 3.1% and an MFI of 2.11.
On to “MAB391, commercially available mouse anti-IGF-1R monoclonal antibody”, for which the % binding of 125I-IGF-1 in [19] came to 38%; in assay [20], 95%; in assay [21] it was 100%; in assay [22] it was 54%. For the same molecule, the % binding in [5] was found to be 0%; in [11] it was 40%.

B1: chimeric R1 (cR1) (antibody, V domains shown)
VH: EVKLVESGGGLVQPGGSLKLSCATSGFTFSDYYMYWVRQTPEKRLEWVAYITNYGGSTYYPDTVKGRFTISRDNAKNTLYLQMSRLRSEDTAMYFCARQSNYDYDGWFAYWGQGTTVTVSS
VL: DIVMTQSHKFMSTSVGDRVSITCKASQEVGTAVAWYQQKPGQSPKLLIYWASTRHTGVPDRFTGSGSGTDFTLTISNVQSEDLADYFCQQYSNYPLTFGAGAKLELKR
notes: R1 variable domains on human constant regions of the pdHL2 vector (cR1pdHL2); also called mouse-human chimeric mAb of R1; clones 709.2D2 and 710.2G2
Consider B1, for which the “% binding” value in assay [23] is 100%; in [24], 0%; in [25] it was 128%; in assay [26], 108%; in [27], 0%; in [28] it was 100%. Further, the “% binding” value in assay [29] was determined as 100%; in assay [31], 125%; in [32], 40%; in assay [33], 0%; in [34] it was 106%; in [35], 100%. The “% binding” value in [36] came to 100%. Further, in assay [30], the binding result is “no binding”. For the same molecule, the Kd in [37] is about 0.1 nM.

B2: humanized R1 (hR1) (antibody, V domains shown)
VH: QVQLQESGGGVVQPGRSLRLSCSASGFTFSDYYMYWVRQAPGKGLEWVAYITNYGGSTYYPDTVKGRFTISRDNAKNTLFLQMDSLRPEDTGVYFCARQSNYDYDGWFAYWGQGTPVTVSS
VL: DIQLTQSPSSLSASVGDRVTITCKASQEVGTAVAWYQQKPGKAPKLLIYWASTRHTGVPSRFSGSGSGTDFTFTISSLQPEDIATYFCQQYSNYPLTFGQGTKVEIKR
notes: also called hR1 IgG; production clone 711.3C11
For B2, the “% binding” value was determined as 100% in assay [23]; 0% in assay [24]; 136% in assay [25]; 121% in assay [26]; 0% in assay [27]; 100% in [28]. The “% binding” value in assay [29] came to 100%; in [31], 131%; in assay [32], 71%; in [33], 0%; in [34], 100%; in assay [35] it was 100%. Further, the “% binding” value in assay [36] was 100%.
